From IntAct's records for PubMed 20935634

B1: Tumor necrosis factor receptor superfamily member 6 (Homo sapiens), P25445-1 (parent)
chain: MLGIWTLLPLVLTSVARLSSKSVNAQVTDINSKGLELRKTVTTVETQNLEGLHHDGQFCHKPCPPGERKARDCTVNGDEPDCVPCQEGKEYTDKAHFSSKCRRCRLCDEGHGLEVEINCTRTQNTKCRCKPNFFCNSTVCEHCDPCTKCEHGIIKECTLTSNTKCKEEGSRSNLGWLCLLLLPIPLIVWVKRKEVQKTCRKHRKENQGSHESPTLNPETVAINLSDVDLSKYITTIAGVMTLSQVKGFVRKNGVNEAKIDEIKNDNVQDTAEQKVQLLRNWHQLHGKKEAYDTLIKDLKKANLCTLAEKIQTIILKDITSDSENSNFRNEIQSLV
B2: FAS-associated death domain protein (Homo sapiens), Q13158 (parent)
chain: MDPFLVLLHSVSSSLSSSELTELKFLCLGRVGKRKLERVQSGLDLFSMLLEQNDLEPGHTELLRELLASLRRHDLLRRVDDFEAGAAAGAAPGEEDLCAAFNVICDNVGKDWRRLARQLKVSDTKIDSIEDRYPRNLTERVRESLRIWKNTEKENATVAHLVGALRSCQMNLVADLVQEVQQARDLQNRSGAMSPMSWNSDASTSEAS

Variants of: B1
Conditions: with fadd_human FADD

| Variant | effect of a mutation on the interaction |
| --- | --- |
| Q283K | disrupting interaction |
| K287D | disrupting interaction |

Variants of: B1
Conditions: with fadd_human FADD
Remark: another data set of the same source

| Variant | effect of a mutation on the interaction |
| --- | --- |
| D260V | disrupting interaction strength |

Variants of: B2
Conditions: with FAS

| Variant | effect of a mutation on the interaction |
| --- | --- |
| D123R | disrupting interaction |
| R117E | disrupting interaction |
| D175K | disrupting interaction |
| L172K | disrupting interaction |
| R142E | disrupting interaction |
| R135E | disrupting interaction |

Variants of: B2
Conditions: with FAS
Remark: another data set of the same source

| Variant | effect of a mutation on the interaction |
| --- | --- |
| D123R | decreasing interaction |
| L172E | disrupting interaction |
| K153E | decreasing interaction |
| R142E | decreasing interaction |
| R135E | decreasing interaction |
